Measured values published in the Human Domainome abundance scans (Beltran et al. 2025).

B1: Transcriptional regulator ERG, residues 117 to 197; numbered along this chain, P11308 (parent)
chain: NMTTNERRVIVPADPTLWSTDHVRQWLEWAVKEYGLPDVNILLFQNIDGKELCKMTKDDFQRLTPSYNADILLSHLHYLRE

Variants of: B1
Assay: abundance fitness (aPCA) (normalised: wild type 0, dead -1); higher = more abundant; growth selection in yeast, the domain comes from the species named
Details: Homo sapiens

Abundance fitness, by site and new letter:
E51: N -0.092; K -0.025; Q -0.017; T 0.026; C -0.127; D -0.087; G 0.022; R 0.001; I -0.319; V -0.051; M -0.054; P -0.897; F -0.277; H -0.113; Y -0.026; W -0.267; A 0.02; S 0
K54: I -0.377; D 0.021; V -0.238; E 0.072; G -0.028; W -0.41; P -1.08; R -0.049; T -0.094; Y -0.117; S 0.092; Q -0.118; H -0.071; C -0.112; L -0.103; N -0.054; F -0.227
T56: I -0.236; Y -0.457; K 0.081; C -0.024; L -0.265; D -0.01; G 0.042; H -0.123; A -0.118; P -0.632; V -0.066; Q -0.108; F -0.502; R -0.082; S 0.077; N -0.076; E -0.058; M -0.282
S66: L -0.239; E 0.03; K -0.056; V -0.117; F -0.039; D -0.185; N 0.11; M -0.295; T -0.12; Q -0.012; H -0.107; R -0.057; P 0.03; A 0.058; G -0.025; C -0.005; I -0.178
F60: E -1.18; L -0.093; T -0.902; Q -1.05; H -0.633; R -0.866; D -0.773; I 0.074; M 0.13; G -0.971; Y -0.365; A -0.401; W 0.017; S -0.536; V -0.083; C -0.306
K50: V -0.009; E 0.035; A 0.044; I -0.1; L -0.054; P -0.011; C 0.015; N 0.032; H -0.098; R -0.032; Q -0.022; T 0.014; G -0.089; D -0.004; W -0.05
T64: G -0.141; K -0.576; W -0.091; C -0.076; S -0.155; F 0.025; E -0.175; A -0.034; V -0.028; I -0.345; Q -0.135; D 0.041; M 0.011; N 0.02
G49: V -0.895; N -1.08; D -0.874; F -0.816; W -1.04; Y -1.14; I -1.4; L -0.833; T -1.11; Q -0.836; S -0.737; A -0.837; R -0.8; K -0.945; M -0.678
P65: H 0.135; E -0.088; Y 0.109; F 0.342; A 0.025; G -0.004; S 0.044; L -0.146; Q -0.265; D 0.07; C 0.051; N -0.271; W -0.109; K -0.107; I -0.449; M 0.048; R -0.017; T 0.02
M55: T -0.703; Q -0.924; K -0.315; I -0.431; G -0.807; R -0.65; N -0.37; S -1.14; F -0.136; E -1.09; L -0.023; A -0.842; D -0.745; C -0.278; W -0.091
R62: L -0.152; C -0.072; F -0.112; K 0.017; S -0.095; W -0.26; Q 0.067; D 0.02; N 0.015; V -0.063; M 0.097; Y -0.138; H -0.165; P -0.399; I 0.03; A 0.022; T -0.162; E -0.073; G -0.06
C53: D -0.325; Q -0.269; A -0.132; P -1.06; F -0.235; G -0.262; Y -0.509; H -0.574; T -0.06; V -0.034; E -0.471; L 0; I -0.099; R -0.391; N -0.228; S -0.15; W -0.561; M 0.043
L63: S -0.46; K -0.213; H -0.18; G -0.547; V -0.092; I 0.097; R -0.153; F -0.071; Y -0.027; M -0.003; E -0.691; N -0.571; C -0.215; Q -0.459; A -0.238; P -0.567; W -0.179; T -0.476
I47: P -0.99; T -0.242; W -0.653; D -0.789; N -0.492; Q -1.08; H -0.251; K -0.255; Y -0.022; L -0.046; V 0.006; E -0.712; S -0.751; F -0.176; R -0.609
K57: T -0.14; V -0.127; L -0.084; D -0.093; N -0.234; R -0.016; P -0.028; I 0.18; F -0.15; M -0.165; C -0.264; Q -0.159; A 0.029; E -0.023; S -0.024
D58: P 0.103; R 0.011; Y 0.004; T -0.072; S -0.1; F -0.096; Q -0.088; G -0.078; L -0.03; A 0.039; K -0.063; N -0.169; I 0.055; H 0.202; W -0.132; C -0.134
D48: N 0.022; F -0.399; E -0.076; V -0.378; T 0.033; H -0.282; G -0.114; S -0.052; L -0.521; M -0.412; K -0.123; C -0.075; P -0.295; Y -1; W -0.969; Q -0.227; R -0.183
L52: I -0.126; V -0.308; E -0.367; H -0.689; N -0.97; S -0.932; K -0.728; F -0.327; A -0.695; T -1.11; Q -0.946; G -0.694; P -0.886; C -0.928; Y -0.883; M -0.324; W -0.809; R -0.77
Q61: F -0.042; A 0.011; I 0.193; S -0.032; T 0.105; W -0.101; P -0.617; R -0.026; E 0.056; K 0.044; Y -0.058; N -0.06; V -0.002; D -0.037; C -0.037; M 0.096; G -0.021; H 0.173
D59: E -0.09; S -0.155; Q -0.04; T 0.059; G -0.204; R -0.154; V -0.232; A 0.068; C 0.027; Y -0.666; F -0.538; H -0.244; L -0.765; W -0.743; M -0.204; K -0.199; N -0.24
